For this test, the target named is stressed NISTmAb monoclonal antibody. Description: AUC; sedimentation velocity at 50,000 rpm and 20 °C; c(s) analysis in SEDFIT (command line operated, and repeated manually on the same data); stressed, partially denatured sample.

stressed NISTmAb monoclonal antibody: the percent of signal in higher aggregates (command line analysis) was 51.8%; the percent of signal in higher aggregates (manual analysis of the same data) was 51.7%; the percent of signal in the dimer peak came out at 12.5%; the stoichiometry N (in general, the number of molecules, sites or subunits per partner or assembly) stood at 2.

(Values after article doi:10.1101/2023.05.14.540690.)
